According to patent publication US20240309087A1 (SHANGHAI JUNSHI BIOSCIENCES, published 2024):

T1: hCD112R mFC recombinant protein (human; murine, UniProt Q6DKI7 41-160)
T1 construct: range 41-160; expressed in 293E cells; also called hCD112R ECD mFC; hCD112R-ECD-mFC; not shown: murine IgG2a Fc domain (MX2-mFc vector)
T1 sequence (looked up): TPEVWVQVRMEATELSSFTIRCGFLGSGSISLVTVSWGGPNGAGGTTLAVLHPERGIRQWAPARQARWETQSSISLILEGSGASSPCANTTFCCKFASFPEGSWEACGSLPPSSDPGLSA

T2: human CD112R on CHO-CD112R cells (human, UniProt Q6DKI7 41-326)
T2 construct: whole, on cells; also called hCD112R; PVRIG
T2 sequence (looked up): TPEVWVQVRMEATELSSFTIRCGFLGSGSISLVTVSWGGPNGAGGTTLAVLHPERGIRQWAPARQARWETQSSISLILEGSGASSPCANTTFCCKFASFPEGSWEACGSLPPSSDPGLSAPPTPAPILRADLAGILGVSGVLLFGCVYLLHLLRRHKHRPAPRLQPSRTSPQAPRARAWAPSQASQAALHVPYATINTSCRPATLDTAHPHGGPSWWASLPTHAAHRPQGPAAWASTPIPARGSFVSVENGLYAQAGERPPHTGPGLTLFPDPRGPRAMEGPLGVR

T3: recombinant cynomolgus monkey CD112R antigen (cynomolgus monkey, UniProt A0A2K5WVV8 1-322)
T3 construct: bought
T3 sequence: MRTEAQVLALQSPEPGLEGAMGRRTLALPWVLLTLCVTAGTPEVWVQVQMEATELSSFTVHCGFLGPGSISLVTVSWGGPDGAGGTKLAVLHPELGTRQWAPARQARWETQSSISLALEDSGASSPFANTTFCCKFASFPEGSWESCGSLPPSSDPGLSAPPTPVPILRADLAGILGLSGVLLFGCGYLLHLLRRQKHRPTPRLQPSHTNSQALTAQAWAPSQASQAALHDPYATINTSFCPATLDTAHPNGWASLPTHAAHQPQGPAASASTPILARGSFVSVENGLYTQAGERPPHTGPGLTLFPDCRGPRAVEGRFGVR

T4: human CD112R on Jurkat CD112R effector cells (human, UniProt Q6DKI7 1-326)
T4 sequence (looked up): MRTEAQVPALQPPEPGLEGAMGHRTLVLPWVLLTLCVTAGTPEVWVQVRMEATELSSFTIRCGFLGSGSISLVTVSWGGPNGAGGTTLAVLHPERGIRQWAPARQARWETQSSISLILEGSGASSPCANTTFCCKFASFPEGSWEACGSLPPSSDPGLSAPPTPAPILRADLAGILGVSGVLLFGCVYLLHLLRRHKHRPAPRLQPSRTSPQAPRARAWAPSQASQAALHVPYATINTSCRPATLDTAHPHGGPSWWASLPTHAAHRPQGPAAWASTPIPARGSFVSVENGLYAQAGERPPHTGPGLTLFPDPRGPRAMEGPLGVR


Experiments:
[1] = target: T1, hCD112R mFC recombinant protein; experiment: Biacore T200, antibody captured, hCD112R mFc injected
Procedure: Biacore T200 was used to assay the binding affinity of the anti-CD112R hybridoma antibodies for the recombinant hCD112R mFc protein. […] antibody fragments (Jackson ImmunoResearch) were coupled to the surface of a CM5 chip, and the anti-CD112R hybridoma antibodies were each captured by using the chip, after which recombinant hCD112R mFc proteins at different concentrations were injected into the CM5 chip.

[2] = target: T2, human CD112R on CHO-CD112R cells; experiment: FACS on CHO-CD112R cells; EC50 Ref/EC50 antibody
Procedure: (§1) CHO-CD112R cells (constructed in-house by Junshi, the amino acid sequence of CD112R in the construction of stable cell lines overexpressing CD112R comprises amino acids at positions Met1-Arg326 under NCBI accession No. Q6DKI7) overexpressing human CD112R were incubated with each of the chimeric anti-CD112R antibodies at different concentrations (initial concentration: 50 μg/mL, 5-fold dilution, 12 concentration gradients in total) at 4° C. for 30 min, and then washed and incubated with a fluorescence-labeled secondary antibody at 4° C. for 30 min in the dark. Finally, the cells were collected by using a flow cytometer (BD Canto II), and the fluorescent antibodies bound to the cell surface were detected. Raw data were analyzed by using FlowJo to obtain MFI values, the antibody dose-dependent binding curves were fitted by using GraphPad (FIG. 3, a and b) and EC₅₀ was calculated (Table 3). The positive control and the negative control were Ref (anti-CD112R antibody, University of Colorado, obtained by expression and purification according to the sequences in US20170240613) and anti-KLH hu-IgG4 antibody, respectively.

[3] = target: T3, recombinant cynomolgus monkey CD112R …; experiment: ELISA, coated cynomolgus monkey CD112R
Procedure: (§2) A plate was coated with a recombinant cynomolgus monkey CD112R antigen (Acrobiosystems, Cat No. PVG-C5259) at a fixed concentration, and the chimeric anti-CD112R antibodies diluted in a gradient (initial concentration: 1 μg/mL, 2.5-fold gradient dilution, 12 concentration gradients in total) were added to bind to the antigen. Horseradish peroxidase (HRP)-conjugated mouse anti-human IgG4 Fc (Southern Biotech, 9200-05) was subjected to a 5000-fold dilution and used as a detection antibody for detection. The color development was performed with 0.1 mg/mL TMB, and finally stopped with 2 M hydrochloric acid. The plate was read at 420 nm/620 nm. EC₅₀ was obtained by fitting with a four-parameter logistic regression (4PL) model.

[4] = target: T2, human CD112R on CHO-CD112R cells; experiment: FACS on CHO-CD112R cells
Procedure: as §1

[5] = target: T3, recombinant cynomolgus monkey CD112R …; experiment: ELISA, coated cynomolgus monkey CD112R; EC50 Ref/EC50 antibody
Procedure: as §2

[6] = target: T4, human CD112R on Jurkat CD112R effector …; experiment: cell-based or functional assay
[7] = target: T1, hCD112R mFC recombinant protein; experiment: FACS competition, hCD112R mFc on CHO CD112 cells; ratio Ref/antibody
Procedure: (§3) Cells CHO CD112 overexpressing human CD112 were co-incubated with a hCD112R mFc protein solution (5 μg/mL) prepared in a staining buffer (PBS+1% FBS), and the chimeric anti-CD112R antibodies or the control antibodies at different concentrations (initial concentration: 100 μg/mL, 3-fold dilution, 10 concentration gradients) at 4° C. for 30 min. Unbound antibodies were then washed with a staining buffer and the cells were incubated with 1% (v/v) goat anti-mouse IgG Fc fluorescent secondary antibodies (Jackson ImmunoResearch) prepared in a staining buffer at 4° C. for 30 min in the dark. Finally, the cells were collected by using a flow cytometer (BD Canto II), and the fluorescent antibodies bound to the cell surface were detected. Raw data were analyzed by using FlowJo to obtain MFI values, and a four-parameter curve fitting was performed by using GraphPad Prism software to obtain IC₅₀ values. The positive control and the negative control were Ref (anti-CD112R antibody, University of Colorado, obtained by expression and purification according to the sequences in US20170240613) and the anti-KLH hu-IgG4 antibody, respectively.

[8] = target: T1, hCD112R mFC recombinant protein; experiment: FACS competition, hCD112R mFc on CHO CD112 cells
Procedure: as §3
As shown in FIG. 5 (a and b) and Table 8, the following 13 chimeric antibodies were all capable of effectively blocking the binding of the CD112R protein to CHO-CD112 cells.

[9] = target: T1, hCD112R mFC recombinant protein; experiment: FACS blocking: hCD112R mFc (5 µg/mL) binding to human CD112 on CHO CD112 cells, MFI-APC; unit from the axis (µg/mL), Table 8 says ng/ml
Procedure: as §3

Kd [1] [nM] | Relative activity (%) [2] [%] | EC50 [3] [µg/mL] | EC50 [4] [µg/mL] | Relative activity (%) [5] [%] | EC50, CD112R/CD112 reporter [6] [µg/mL] | Relative activity (%), EC50 Ref/EC50 antibody [6] [%] | Relative activity (%) [7] [%] | IC50 [8] [µg/mL] | IC50 [9] [µg/mL] | Binder
0.0588 | – | – | – | – | – | – | – | – | – | 8H8.1 (antibody, V domains shown, murine hybridoma antibody) VH: EVKLVESGGGLVKPGGSLKVSCAASGFTFSDYPMSWVRQTPDKRLEWVACIDTDENTYYPDSVKGRFTISRDNGRNIVNLQMSSLRSEDAAMYYCARGWDDYAAWFAYWGQGTLVTVSA VL: ENVLTQFPAIMSVFLGERVTMSCRASSSVNYMYWYQQKSDASPKLWIYHTSNLAPGVPARFSGSGSGNSYSLTISSMEGEDAATYYCQQFTSSPWTFGGGTKLEIK
– | 478 | 0.00391 | 0.351 | 89.6 | 0.0306 | 1060 | – | – | – | Chi-36 (antibody, V domains shown, chimeric) VH: EVQLQQSGPELVKPGASVRISCKASGYTFTDYNMHWVKQSHGKSLEWIGYIYPYNGGTGHNQNFKSKATLTVDKSSSTAYMEFRSLTSDDSAVYYCAREDFRHEKMDYWGQGTSVTVSS VL: DIQMTQSPASLSASVGETVTITCRTSDNIYVYLSWYQQKQGKSPQLLVYNAKTLTENVPSRFSGSGSGTQFSLKINSLQPEDFGSYYCQHHYGTPYTFGGGTKLEIK
– | 388 | 0.00326 | 0.433 | 107 | 0.00701 | 4610 | 132 | 0.8 | 0.8 | Chi-46 (antibody, V domains shown, chimeric) VH: DVKLVESGGGLVKLGGSLKLSCAASGFTFSSYHMSWVRQTPEKRLELVAAINSNVISTYYLDTVKGRFTISRDNAKNTLYLQMSSLKSEDTALYYCARHEDYYGFAMDYWGQGTSVTVSS VL: SIVMTQTPKFLLVSAGDRVTITCKASQSVSNDVAWYQQKPGQSPKLLMYYVSNRFTGVPDRFTGSGYGTDFTFTINTVQAEDLAVYFCQQAYRSPWTFGGGTKLEIK
– | 805 | 0.00436 | 0.531 | 96.1 | 0.0174 | 1490 | – | – | – | Chi-63 (antibody, V domains shown, chimeric) VH: DVKLVESGGGLVKLGGSLKLSCAASGFTFSSYHMSWVRQTPEKRLELVAAISRDGDSTYYPDTVKGRFTISRDDAENTLYLQMSSLKSEDTALYYCSRHEDYFGFAMDSWGQGTSVTVSS VL: SIVMTQTPKFLLVSAGDRVTITCKASQSVTNDVAWYQQKPGQSPKLLMYYVSNHYTGVPDRFIGSGYGTDFTFTISTVQAEDLAVYFCQQAYRSPWTFGGGTKLEIK
– | 2090 | 0.00442 | 0.205 | 94.8 | 0.0194 | 1470 | 144 | 0.733 | 0.733 | Chi-71 (antibody, V domains shown, chimeric) VH: DVQLVESGGGLVKLGGSLKLSCVASGFTFSSYHMSWIRQTPEKRLELVAAINSNDINTYYLDTVKGRFTISRDIAKNTLHLQMSSLKSEDTALYYCARHEDYYGFAMDYWGQGTSVTVSS VL: SIVMTQTPKFLLVSAGDRVTITCKASQSVTNDVAWYQQKPGQSPKLLMYYVSNHYTGVPDRFIGSGYGTDFTFTISTVQAEDLAVYFCQQAYRSPWTFGGGTKLEIK
– | 2000 | 0.00371 | 0.214 | 113 | 0.0129 | 2350 | 110 | 0.964 | 0.964 | Chi-62 (antibody, V domains shown, chimeric) VH: DVKLVESGGGLVKLGGSLKLSCAASGFTFSSYHMSWVRQTPEKRLELVAAISRDGDSTYYPDTVKGRFTISRDDAENTLYLQMSSLKSEDTALYYCSRHEDYFGFAMDSWGQGTSVTVSS VL: SIVMTQTPKFLLVSAGDRVTITCKASQSVSNDVAWYQQKPGQSPKLLMYYVSNRFTGVPDRFTGSGYGTDFTFTINTVQAEDLAVYFCQQAYRSPWTFGGGTKLEIK
– | 600 | 0.00309 | 0.28 | 113 | 0.014 | 2230 | 121 | 0.876 | 0.876 | Chi-47 (antibody, V domains shown, chimeric) VH: DVKLVESGGGLVKLGGSLKLSCAASGFTFSSYHMSWVRQTPEKRLELVAAINSNVISTYYLDTVKGRFTISRDNAKNTLYLQMSSLKSEDTALYYCARHEDYYGFAMDYWGQGTSVTVSS VL: SIVMTQTPKFLLVSAGDRVTITCKASQSVTNDVAWYQQKPGQSPKLLMYYVSNHYTGVPDRFIGSGYGTDFTFTISTVQAEDLAVYFCQQAYRSPWTFGGGTKLEIK
